From article PMC9482650, “Quantitative fragmentomics allow affinity mapping of interactomes” (Nature Communications, 2022)

How the values were obtained:
Assay in all cases: holdup assay
Design in all cases: key: below the threshold = too weak to quantify, mostly under pKd 3.1 to 4
[1] = biological target: T1, FRMPD1, Q5SYB0
T1 sequence (Q5SYB0 52-145, limits assumed, looked up): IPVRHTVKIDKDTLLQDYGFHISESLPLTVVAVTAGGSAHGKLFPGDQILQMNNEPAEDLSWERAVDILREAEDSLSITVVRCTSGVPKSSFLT

[2] = biological target: TJP2_1, Q9UDY2
[3] = biological target: T2, HTRA4, P83105
T2 sequence (P83105 378-476, limits assumed, looked up): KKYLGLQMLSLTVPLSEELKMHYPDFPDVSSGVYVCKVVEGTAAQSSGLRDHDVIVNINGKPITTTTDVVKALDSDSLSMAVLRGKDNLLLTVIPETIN

[4] = biological target: T3, APBA1_2, Q02410
T3 sequence (Q02410 742-832, limits assumed, looked up): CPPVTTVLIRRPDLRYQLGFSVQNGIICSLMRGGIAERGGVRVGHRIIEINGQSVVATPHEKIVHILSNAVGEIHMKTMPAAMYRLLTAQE

[5] = biological target: T4, PDZRN3_1, Q9UPQ7
T4 sequence (Q9UPQ7 244-349, limits assumed, looked up): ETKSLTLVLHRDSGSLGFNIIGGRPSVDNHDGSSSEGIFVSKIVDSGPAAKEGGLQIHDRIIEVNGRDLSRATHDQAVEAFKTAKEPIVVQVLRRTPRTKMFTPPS

[6] = biological target: NHERF4_1, Q86UT5-2
[7] = biological target: Inadl_3, Q8NI35
[8] = biological target: T5, HTRA3, P83110
T5 sequence (P83110 354-453, limits assumed, looked up): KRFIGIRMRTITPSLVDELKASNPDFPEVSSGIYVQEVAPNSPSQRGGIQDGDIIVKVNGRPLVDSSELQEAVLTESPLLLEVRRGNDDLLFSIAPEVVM

[9] = biological target: T6, GRIP1_4, Q9Y3R0
T6 sequence (Q9Y3R0 467-571, limits assumed, looked up): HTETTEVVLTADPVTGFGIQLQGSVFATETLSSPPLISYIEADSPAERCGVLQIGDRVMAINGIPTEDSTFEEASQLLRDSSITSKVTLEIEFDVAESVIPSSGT

[10] = biological target: T7, TJP3_3, O95049
T7 sequence (O95049 375-456, limits assumed, looked up): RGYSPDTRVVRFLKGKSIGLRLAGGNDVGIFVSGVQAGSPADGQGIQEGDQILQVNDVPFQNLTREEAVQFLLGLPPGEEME

[11] = biological target: MAGI2_4, Q86UL8
[12] = biological target: SCRIB_3, Q14160
[13] = biological target: T8, APBA1_1, Q02410
T8 sequence (Q02410 651-752, limits assumed, looked up): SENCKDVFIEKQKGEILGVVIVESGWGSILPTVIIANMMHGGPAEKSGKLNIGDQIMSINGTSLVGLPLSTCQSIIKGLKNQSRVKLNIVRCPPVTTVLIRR

[14] = biological target: T9, MPDZ_10, O75970
T9 sequence (O75970 1624-1722, limits assumed, looked up): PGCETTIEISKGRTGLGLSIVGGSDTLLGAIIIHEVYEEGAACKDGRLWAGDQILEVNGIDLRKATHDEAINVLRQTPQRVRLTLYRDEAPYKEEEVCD

[15] = biological target: GOPC, Q9HD26
[16] = biological target: Inadl_2, Q8NI35
[17] = biological target: T10, GRIP1_5, Q9Y3R0
T10 sequence (Q9Y3R0 568-668, limits assumed, looked up): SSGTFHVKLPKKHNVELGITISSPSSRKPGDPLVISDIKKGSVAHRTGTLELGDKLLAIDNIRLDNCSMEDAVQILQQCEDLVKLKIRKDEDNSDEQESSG

[18] = biological target: GIPC2, Q8TF65
[19] = biological target: NOS1, P29475
[20] = biological target: Inadl_1, Q8NI35
[21] = biological target: SCRIB_2, Q14160
[22] = biological target: HTRA1, Q92743
[23] = biological target: T11, DFNB31_2, Q9P202
T11 sequence (Q9P202 274-371, limits assumed, looked up): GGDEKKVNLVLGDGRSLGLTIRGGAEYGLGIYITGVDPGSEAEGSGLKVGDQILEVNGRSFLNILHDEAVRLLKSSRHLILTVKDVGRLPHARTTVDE

[24] = biological target: T12, TIAM2, Q8IVF5
T12 sequence (Q8IVF5 885-986, limits assumed, looked up): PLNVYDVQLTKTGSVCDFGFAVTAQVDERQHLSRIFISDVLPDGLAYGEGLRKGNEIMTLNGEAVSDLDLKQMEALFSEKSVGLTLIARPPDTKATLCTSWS

[25] = biological target: DLG4_3, P78352
[26] = biological target: Inadl_4, Q8NI35
[27] = plain residues with an end cap or a label only (N-terminal biotin on a linker: ttds)
[28] = plain residues with an end cap or a label only (N-terminal biotin on a linker: none)
[29] = plain residues with an end cap or a label only (N-terminal biotin on a linker: gsgsgs; C-terminal amide)
[30] = plain residues with an end cap or a label only (N-terminal biotin on a linker: ado-ado)

Chain of HTRA1, Q92743 (Q92743 360-477): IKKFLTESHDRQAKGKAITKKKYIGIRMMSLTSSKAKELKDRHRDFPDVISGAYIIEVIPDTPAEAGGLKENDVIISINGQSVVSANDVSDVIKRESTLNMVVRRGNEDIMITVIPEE
Chain of Inadl_1, Q8NI35 (Q8NI35 113-229): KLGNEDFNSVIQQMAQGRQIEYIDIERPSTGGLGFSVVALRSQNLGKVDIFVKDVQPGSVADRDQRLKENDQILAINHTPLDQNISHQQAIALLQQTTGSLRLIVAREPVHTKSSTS
Chain of MAGI2_4, Q86UL8 (Q86UL8 772-865): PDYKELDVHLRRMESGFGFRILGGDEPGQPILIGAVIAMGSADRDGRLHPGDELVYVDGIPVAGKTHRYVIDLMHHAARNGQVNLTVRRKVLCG
Chain of NOS1, P29475 (P29475 9-101): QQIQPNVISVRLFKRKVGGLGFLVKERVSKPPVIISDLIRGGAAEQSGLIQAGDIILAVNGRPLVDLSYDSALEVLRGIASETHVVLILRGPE
Chain of Inadl_3, Q8NI35 (Q8NI35 359-469): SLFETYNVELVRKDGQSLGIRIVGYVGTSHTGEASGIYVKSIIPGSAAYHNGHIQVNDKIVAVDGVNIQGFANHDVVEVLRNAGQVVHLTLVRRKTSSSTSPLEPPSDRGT
Chain of DLG4_3, P78352 (P78352 306-403): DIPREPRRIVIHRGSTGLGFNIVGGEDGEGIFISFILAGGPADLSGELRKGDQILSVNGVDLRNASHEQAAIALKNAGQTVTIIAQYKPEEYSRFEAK
Chain of SCRIB_3, Q14160 (Q14160 999-1103): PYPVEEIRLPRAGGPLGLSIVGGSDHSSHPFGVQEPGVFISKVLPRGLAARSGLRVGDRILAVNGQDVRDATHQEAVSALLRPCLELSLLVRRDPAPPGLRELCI
Chain of TJP2_1, Q9UDY2 (Q9UDY2 24-128): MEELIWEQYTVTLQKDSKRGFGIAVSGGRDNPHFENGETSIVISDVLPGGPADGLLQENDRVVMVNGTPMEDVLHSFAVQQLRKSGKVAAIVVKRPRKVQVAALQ
Chain of SCRIB_2, Q14160 (Q14160 857-960): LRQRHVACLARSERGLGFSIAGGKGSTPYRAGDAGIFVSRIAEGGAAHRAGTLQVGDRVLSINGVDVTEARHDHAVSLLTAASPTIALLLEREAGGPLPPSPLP
Chain of Inadl_2, Q8NI35 (Q8NI35 238-335): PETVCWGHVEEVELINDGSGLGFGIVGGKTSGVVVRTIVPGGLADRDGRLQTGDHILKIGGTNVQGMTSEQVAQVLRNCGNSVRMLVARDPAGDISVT
Chain of GIPC2, Q8TF65 (Q8TF65 112-203): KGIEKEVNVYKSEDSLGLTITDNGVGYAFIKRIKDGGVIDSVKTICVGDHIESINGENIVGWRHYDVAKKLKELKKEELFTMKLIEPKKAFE
Chain of NHERF4_1, Q86UT5-2 (Q86UT5 other isoform, or with tags, fused parts or gaps): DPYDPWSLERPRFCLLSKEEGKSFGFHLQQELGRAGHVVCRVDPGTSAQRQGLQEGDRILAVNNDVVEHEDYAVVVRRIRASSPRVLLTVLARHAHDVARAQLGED
Chain of Inadl_4, Q8NI35 (Q8NI35 547-651): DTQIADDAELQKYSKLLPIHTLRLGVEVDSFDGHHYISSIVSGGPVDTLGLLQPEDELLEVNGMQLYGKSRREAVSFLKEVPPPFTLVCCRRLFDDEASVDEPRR

Binder: TGDTLEKFVEGL [CBP, Q92793]
- pKd [1, 27]: below the threshold
- pKd [2, 27]: below the threshold
- pKd [3, 27]: below the threshold
- pKd [4, 27]: below the threshold
- pKd [5, 27]: below the threshold
- pKd [6, 27]: 3.71
- pKd [7, 27]: below the threshold
- pKd [8, 27]: below the threshold
- pKd [9, 27]: below the threshold
- pKd [10, 27]: below the threshold
- pKd [11, 27]: below the threshold
- pKd [12, 27]: below the threshold
- pKd [13, 27]: below the threshold
- pKd [14, 27]: 3.67
- pKd [15, 27]: below the threshold
- pKd [16, 27]: below the threshold
- pKd [17, 27]: below the threshold
- pKd [18, 27]: below the threshold
- pKd [19, 27]: below the threshold
- pKd [20, 27]: below the threshold
- pKd [21, 27]: below the threshold
- pKd [22, 27]: below the threshold
- pKd [23, 27]: below the threshold
- pKd [24, 27]: below the threshold
- pKd [25, 27]: below the threshold
- pKd [26, 27]: below the threshold

Binder: DSKPPLPPDEWV [MERS-E, K9N5R3]
- pKd [1, 28]: below the threshold
- pKd [2, 28]: 3.84
- pKd [3, 28]: 3.68
- pKd [4, 28]: 4.59
- pKd [5, 28]: below the threshold
- pKd [6, 28]: below the threshold
- pKd [7, 28]: 3.55
- pKd [8, 28]: 5.66
- pKd [9, 28]: below the threshold
- pKd [10, 28]: 4.83
- pKd [11, 28]: 3.73
- pKd [12, 28]: 3.9
- pKd [13, 28]: 3.53
- pKd [14, 28]: below the threshold
- pKd [15, 28]: 3.92
- pKd [16, 28]: below the threshold
- pKd [17, 28]: 3.68
- pKd [18, 28]: below the threshold
- pKd [19, 28]: 3.99
- pKd [20, 28]: 3.61
- pKd [21, 28]: 3.58
- pKd [22, 28]: 4.34
- pKd [23, 28]: below the threshold
- pKd [24, 28]: below the threshold
- pKd [25, 28]: 3.64
- pKd [26, 28]: below the threshold

Binder: ELIQDTSTSFSTTREW [ARAP3_int, Q8WWN8]
- pKd [1, 29]: below the threshold
- pKd [2, 29]: below the threshold
- pKd [3, 29]: below the threshold
- pKd [4, 29]: below the threshold
- pKd [5, 29]: below the threshold
- pKd [6, 29]: below the threshold
- pKd [7, 29]: below the threshold
- pKd [8, 29]: below the threshold
- pKd [9, 29]: below the threshold
- pKd [10, 29]: below the threshold
- pKd [11, 29]: below the threshold
- pKd [12, 29]: below the threshold
- pKd [13, 29]: below the threshold
- pKd [14, 29]: below the threshold
- pKd [15, 29]: below the threshold
- pKd [16, 29]: below the threshold
- pKd [17, 29]: below the threshold
- pKd [18, 29]: below the threshold
- pKd [19, 29]: below the threshold
- pKd [20, 29]: below the threshold
- pKd [21, 29]: below the threshold
- pKd [22, 29]: below the threshold
- pKd [23, 29]: below the threshold
- pKd [24, 29]: 3.97
- pKd [25, 29]: below the threshold
- pKd [26, 29]: below the threshold

Binder: HRTCYLVTQL [ASIC3, Q9UHC3]
- pKd [1, 27]: below the threshold
- pKd [2, 27]: 3.89
- pKd [3, 27]: 4.83
- pKd [4, 27]: 3.78
- pKd [5, 27]: 4.08
- pKd [6, 27]: 4.49
- pKd [7, 27]: 3.33
- pKd [8, 27]: 3.43
- pKd [9, 27]: below the threshold
- pKd [10, 27]: 3.43
- pKd [11, 27]: 3.75
- pKd [12, 27]: 4.85
- pKd [13, 27]: below the threshold
- pKd [14, 27]: 3.91
- pKd [15, 27]: 4.79
- pKd [16, 27]: below the threshold
- pKd [17, 27]: below the threshold
- pKd [18, 27]: below the threshold
- pKd [19, 27]: 3.75
- pKd [20, 27]: 3.52
- pKd [21, 27]: 3.73
- pKd [22, 27]: 4.39
- pKd [23, 27]: below the threshold
- pKd [24, 27]: 3.3
- pKd [25, 27]: 3.6
- pKd [26, 27]: below the threshold

Binder: LHLHGTGIQV [EPHA7, Q15375]
- pKd [1, 30]: below the threshold
- pKd [2, 30]: below the threshold
- pKd [3, 30]: 4.1
- pKd [4, 30]: 4.22
- pKd [5, 30]: below the threshold
- pKd [6, 30]: 3.85
- pKd [7, 30]: 3.55
- pKd [8, 30]: 3.58
- pKd [9, 30]: below the threshold
- pKd [10, 30]: below the threshold
- pKd [11, 30]: 3.83
- pKd [12, 30]: 3.53
- pKd [13, 30]: below the threshold
- pKd [14, 30]: below the threshold
- pKd [15, 30]: below the threshold
- pKd [16, 30]: below the threshold
- pKd [17, 30]: below the threshold
- pKd [18, 30]: below the threshold
- pKd [19, 30]: 4.24
- pKd [20, 30]: below the threshold
- pKd [21, 30]: below the threshold
- pKd [22, 30]: 4.36
- pKd [23, 30]: below the threshold
- pKd [24, 30]: below the threshold
- pKd [25, 30]: below the threshold
- pKd [26, 30]: below the threshold
